Measured values published in paper PMC9499628, “Nuclear Factor Kappa B Promotes Ferritin Heavy Chain Expression in Bombyx mori in Response to B. mori Nucleopolyhedrovirus Infection”.

T1: BmRelish RHD (RelRHD) (Bombyx mori, UniProt A0A8R2LW60 51-335)
T1 sequence: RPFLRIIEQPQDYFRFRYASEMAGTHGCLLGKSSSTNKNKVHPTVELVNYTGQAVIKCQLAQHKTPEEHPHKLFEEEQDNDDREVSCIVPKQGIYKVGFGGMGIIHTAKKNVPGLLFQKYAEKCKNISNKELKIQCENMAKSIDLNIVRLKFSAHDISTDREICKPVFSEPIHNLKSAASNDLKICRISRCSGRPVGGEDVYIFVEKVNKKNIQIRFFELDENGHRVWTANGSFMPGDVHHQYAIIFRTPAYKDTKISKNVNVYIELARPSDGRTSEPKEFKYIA

B1: Mut-CRE4 (dsDNA)
DNA 1: AATAAGTGCCAAACACTCCATCTCGC
DNA 2: GCGAGATGGAGTGTTTGGCACTTATT
B2: Mut-CRE2 (dsDNA)
DNA 1: AATGTACATTATCTCCATCTCG
DNA 2: CGAGATGGAGATAATGTACATT
B3: probe-CRE2 (dsDNA)
DNA 1: AATGTAGGTTATTTCCATCTCG
DNA 2: CGAGATGGAAATAACCTACATT
B4: probe-CRE4 (dsDNA)
DNA 1: AATAAGTGGGAATCTCTCCATCTCGC
DNA 2: GCGAGATGGAGAGATTCCCACTTATT

Tests used:
BmRelish RHD (RelRHD) [1] = biological target: T1, BmRelish RHD (RelRHD); assay: competition; mutant competitor against CRE4 probe; band not affected; Chemiluminescent EMSA Kit (Beyotime), manufacturer's instructions; buffer, salt, pH and temperature not stated; settings: protein: recombinant; tags: 6xHis (pET-30a); chain copies: 2; blunt
BmRelish RHD (RelRHD) [2] = biological target: T1, BmRelish RHD (RelRHD); assay: competition; mutant competitor against CRE2 probe; band not affected; Chemiluminescent EMSA Kit (Beyotime), manufacturer's instructions; buffer, salt, pH and temperature not stated; settings: protein: recombinant; tags: 6xHis (pET-30a); chain copies: 2; blunt
BmRelish RHD (RelRHD) [3] = biological target: T1, BmRelish RHD (RelRHD); assay: EMSA; cold probe weakens band; Chemiluminescent EMSA Kit (Beyotime), manufacturer's instructions; buffer, salt, pH and temperature not stated; settings: protein: recombinant; tags: 6xHis (pET-30a); chain copies: 2; label: 5' biotin (unlabelled as cold probe); blunt

Binder	binding result (BmRelish RHD (RelRHD) [3])	further results
B1		binding result (BmRelish RHD (RelRHD) [1]): no binding
B2		binding result (BmRelish RHD (RelRHD) [2]): no binding
B3	binds	
B4	binds	
